Assays:
[1] = biological target: eIF4E (Homo sapiens, UniProt P06730); experiment: PPI cat-ELCCA chemiluminescent competition assay of eIF4E–4E-BP1; format: binding
[2] = biological target: biotinylated eIF4E (eukaryotic translation initiation factor 4E), N-terminal HaloTag fusion (UniProt P06730); experiment: ELISA
[3] = biological target: biotinylated eIF4E (eukaryotic translation initiation factor 4E), N-terminal HaloTag fusion (UniProt P06730); experiment: PPI cat-ELCCA

biotinylated eIF4E (eukaryotic translation initiation factor 4E), N-terminal HaloTag fusion, sequence (P06730 whole entry, the tested form may be a part): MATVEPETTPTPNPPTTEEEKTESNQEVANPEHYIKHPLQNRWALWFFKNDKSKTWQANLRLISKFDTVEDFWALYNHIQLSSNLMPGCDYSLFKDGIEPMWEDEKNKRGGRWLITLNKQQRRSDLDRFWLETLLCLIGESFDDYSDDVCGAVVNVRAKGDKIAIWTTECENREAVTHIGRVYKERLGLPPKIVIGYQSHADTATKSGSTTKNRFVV
unlabeled 4E-BP1 protein, sequence (Q13541 whole entry): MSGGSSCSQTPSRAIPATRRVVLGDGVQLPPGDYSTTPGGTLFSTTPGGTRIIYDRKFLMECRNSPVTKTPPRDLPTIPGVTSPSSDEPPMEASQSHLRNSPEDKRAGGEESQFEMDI
eIF4E, sequence (P06730 2-217): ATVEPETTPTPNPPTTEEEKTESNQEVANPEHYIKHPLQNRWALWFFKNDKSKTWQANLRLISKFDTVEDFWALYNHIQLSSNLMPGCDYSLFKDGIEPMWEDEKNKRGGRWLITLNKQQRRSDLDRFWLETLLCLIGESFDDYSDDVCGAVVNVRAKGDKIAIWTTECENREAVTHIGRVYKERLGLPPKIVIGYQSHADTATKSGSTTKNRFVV
eIF4E, sequence (Q13541 2-118 partner): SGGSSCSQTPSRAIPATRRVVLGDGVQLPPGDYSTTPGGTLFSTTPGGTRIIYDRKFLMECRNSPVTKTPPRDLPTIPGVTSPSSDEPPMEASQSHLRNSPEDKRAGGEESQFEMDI
eIF4E, sequence (Q04637 whole entry partner, the tested form may be a part): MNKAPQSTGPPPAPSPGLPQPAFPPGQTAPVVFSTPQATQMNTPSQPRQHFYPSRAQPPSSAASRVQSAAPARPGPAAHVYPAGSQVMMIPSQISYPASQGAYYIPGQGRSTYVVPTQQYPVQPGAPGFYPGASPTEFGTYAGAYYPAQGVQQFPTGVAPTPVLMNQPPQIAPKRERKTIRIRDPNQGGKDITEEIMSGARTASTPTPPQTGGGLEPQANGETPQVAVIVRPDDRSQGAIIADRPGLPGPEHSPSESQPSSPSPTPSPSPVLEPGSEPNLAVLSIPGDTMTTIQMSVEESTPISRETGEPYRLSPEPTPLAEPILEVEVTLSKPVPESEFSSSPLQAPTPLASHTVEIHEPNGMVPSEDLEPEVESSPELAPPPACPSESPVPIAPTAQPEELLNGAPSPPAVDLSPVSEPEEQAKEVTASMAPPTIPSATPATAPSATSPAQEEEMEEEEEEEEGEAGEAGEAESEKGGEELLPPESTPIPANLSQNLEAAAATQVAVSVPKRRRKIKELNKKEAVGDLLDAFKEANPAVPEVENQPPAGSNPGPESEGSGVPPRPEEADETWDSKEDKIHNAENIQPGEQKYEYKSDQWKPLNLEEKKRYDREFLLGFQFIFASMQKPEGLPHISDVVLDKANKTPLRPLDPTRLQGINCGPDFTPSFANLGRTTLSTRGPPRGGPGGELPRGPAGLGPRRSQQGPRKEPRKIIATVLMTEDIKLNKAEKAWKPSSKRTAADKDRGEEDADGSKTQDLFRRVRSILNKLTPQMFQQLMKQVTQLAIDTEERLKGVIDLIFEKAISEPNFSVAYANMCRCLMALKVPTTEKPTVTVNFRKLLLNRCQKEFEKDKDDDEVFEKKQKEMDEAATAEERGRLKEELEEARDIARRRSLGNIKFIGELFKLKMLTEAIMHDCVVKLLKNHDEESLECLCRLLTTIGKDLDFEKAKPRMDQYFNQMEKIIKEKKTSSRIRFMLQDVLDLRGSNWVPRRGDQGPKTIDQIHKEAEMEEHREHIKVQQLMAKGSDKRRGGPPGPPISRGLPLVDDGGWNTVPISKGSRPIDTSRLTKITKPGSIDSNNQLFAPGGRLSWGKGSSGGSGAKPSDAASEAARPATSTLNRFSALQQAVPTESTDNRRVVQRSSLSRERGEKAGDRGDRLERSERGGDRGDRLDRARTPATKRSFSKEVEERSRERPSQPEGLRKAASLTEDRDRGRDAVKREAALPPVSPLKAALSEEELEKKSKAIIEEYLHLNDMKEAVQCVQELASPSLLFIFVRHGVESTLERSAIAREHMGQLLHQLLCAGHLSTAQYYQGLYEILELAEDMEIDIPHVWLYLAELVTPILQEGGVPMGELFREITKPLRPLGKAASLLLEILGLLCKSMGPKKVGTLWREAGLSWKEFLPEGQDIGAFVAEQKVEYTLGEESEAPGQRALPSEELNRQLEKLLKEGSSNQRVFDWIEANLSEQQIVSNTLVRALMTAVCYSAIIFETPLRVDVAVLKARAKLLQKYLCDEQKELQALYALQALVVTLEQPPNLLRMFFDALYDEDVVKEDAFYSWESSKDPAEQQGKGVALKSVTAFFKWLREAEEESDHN

IC50 [1]	Kd [2]	IC50 [3]	Molecule
1800 ± 600 nM	–	–	O=C(O)c1ccc(N2C(=O)/C(=C\c3ccc(-c4ccc([N+](=O)[O-])cc4)o3)C=C2c2ccccc2)cc1 [4E1RCat]
–	19 nM	11 nM	unlabeled 4E-BP1 protein (from UniProt Q13541 1-118) (natural protein; other documents disagree on this pair)
